Data published in PMC10221436, “Reagentless Electrochemical Detection of Tumor Biomarker Based on Stable Confinement of Electrochemical Probe in Bipolar Silica Nanochannel Film”.

How the values were obtained:
[1] = molecular target: T1, alpha fetoprotein (AFP) (UniProt P02771 19-609); test: electrochemical aptasensor (MB peak current ratio); 10 ng/mL AFP; 0.01 M PBS (sodium phosphate) pH 7.4; BSA-blocked electrode; CEA incubation temperature and time not in the material; conditions: protein: commercial
T1 sequence: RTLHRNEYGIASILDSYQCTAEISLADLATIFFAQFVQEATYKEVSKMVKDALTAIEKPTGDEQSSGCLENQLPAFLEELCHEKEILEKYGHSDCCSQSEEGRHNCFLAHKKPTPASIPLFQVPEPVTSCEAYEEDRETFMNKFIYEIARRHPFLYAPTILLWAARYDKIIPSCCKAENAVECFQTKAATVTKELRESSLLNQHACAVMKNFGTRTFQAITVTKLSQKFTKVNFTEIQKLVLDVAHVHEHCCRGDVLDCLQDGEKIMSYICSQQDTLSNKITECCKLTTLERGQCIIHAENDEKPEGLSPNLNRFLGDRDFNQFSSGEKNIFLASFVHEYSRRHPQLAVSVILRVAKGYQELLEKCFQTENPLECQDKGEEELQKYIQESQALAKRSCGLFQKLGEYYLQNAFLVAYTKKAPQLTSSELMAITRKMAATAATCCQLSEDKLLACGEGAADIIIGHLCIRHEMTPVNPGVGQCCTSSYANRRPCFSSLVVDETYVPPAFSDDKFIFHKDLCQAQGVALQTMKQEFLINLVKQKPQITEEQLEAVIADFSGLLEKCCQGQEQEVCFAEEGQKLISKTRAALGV

[2] = molecular target: prostate-specific antigen (PSA) (UniProt P07288 25-261); test: electrochemical aptasensor (MB peak current ratio); 10 ng/mL PSA; 0.01 M PBS (sodium phosphate) pH 7.4; BSA-blocked electrode; CEA incubation temperature and time not in the material; conditions: protein: commercial
[3] = molecular target: cancer antigen 15-3 (CA15-3) (UniProt P15941 24-1097); test: electrochemical aptasensor (MB peak current ratio); 10 uU/mL CA15-3; 0.01 M PBS (sodium phosphate) pH 7.4; BSA-blocked electrode; CEA incubation temperature and time not in the material; conditions: protein: commercial
[4] = molecular target: T2, C-reactive protein (CRP) (UniProt P02741 19-224); test: electrochemical aptasensor (MB peak current ratio); 10 ng/mL CRP; 0.01 M PBS (sodium phosphate) pH 7.4; BSA-blocked electrode; CEA incubation temperature and time not in the material; conditions: protein: commercial; chain copies: 5
T2 sequence: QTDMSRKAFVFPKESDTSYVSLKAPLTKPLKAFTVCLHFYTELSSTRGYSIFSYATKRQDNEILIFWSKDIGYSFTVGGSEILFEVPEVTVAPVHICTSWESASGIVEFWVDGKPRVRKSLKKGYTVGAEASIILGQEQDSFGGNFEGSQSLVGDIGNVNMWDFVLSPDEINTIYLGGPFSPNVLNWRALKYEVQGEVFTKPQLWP

[5] = molecular target: carcinoembryonic antigen (CEA) (UniProt P06731 35-685); test: electrochemical aptasensor (DPV, CV, EIS); 1 pg/mL-1 ug/mL CEA; LOD 0.22 pg/mL (not a Kd); 0.01 M PBS (sodium phosphate) pH 7.4; BSA-blocked electrode; CEA incubation temperature and time not in the material; conditions: protein: commercial
Chain of carcinoembryonic antigen (CEA) (P06731 35-685): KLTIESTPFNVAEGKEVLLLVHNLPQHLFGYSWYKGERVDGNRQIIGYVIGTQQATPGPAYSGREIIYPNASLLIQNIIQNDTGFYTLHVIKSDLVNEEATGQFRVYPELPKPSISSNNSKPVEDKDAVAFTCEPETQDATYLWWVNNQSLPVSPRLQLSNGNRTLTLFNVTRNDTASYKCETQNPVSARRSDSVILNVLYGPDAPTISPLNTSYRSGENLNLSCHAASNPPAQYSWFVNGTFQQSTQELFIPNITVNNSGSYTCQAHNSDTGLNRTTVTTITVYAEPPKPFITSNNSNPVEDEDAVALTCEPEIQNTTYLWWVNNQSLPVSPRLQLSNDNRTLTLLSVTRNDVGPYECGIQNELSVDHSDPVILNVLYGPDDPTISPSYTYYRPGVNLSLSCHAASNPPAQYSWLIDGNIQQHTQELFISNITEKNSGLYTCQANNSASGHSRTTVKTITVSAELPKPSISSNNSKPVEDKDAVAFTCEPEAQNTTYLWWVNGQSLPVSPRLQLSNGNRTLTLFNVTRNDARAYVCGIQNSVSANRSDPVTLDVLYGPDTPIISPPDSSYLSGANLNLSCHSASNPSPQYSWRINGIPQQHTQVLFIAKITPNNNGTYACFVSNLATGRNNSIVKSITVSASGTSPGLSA

Chain of cancer antigen 15-3 (CA15-3) (P15941 24-1097): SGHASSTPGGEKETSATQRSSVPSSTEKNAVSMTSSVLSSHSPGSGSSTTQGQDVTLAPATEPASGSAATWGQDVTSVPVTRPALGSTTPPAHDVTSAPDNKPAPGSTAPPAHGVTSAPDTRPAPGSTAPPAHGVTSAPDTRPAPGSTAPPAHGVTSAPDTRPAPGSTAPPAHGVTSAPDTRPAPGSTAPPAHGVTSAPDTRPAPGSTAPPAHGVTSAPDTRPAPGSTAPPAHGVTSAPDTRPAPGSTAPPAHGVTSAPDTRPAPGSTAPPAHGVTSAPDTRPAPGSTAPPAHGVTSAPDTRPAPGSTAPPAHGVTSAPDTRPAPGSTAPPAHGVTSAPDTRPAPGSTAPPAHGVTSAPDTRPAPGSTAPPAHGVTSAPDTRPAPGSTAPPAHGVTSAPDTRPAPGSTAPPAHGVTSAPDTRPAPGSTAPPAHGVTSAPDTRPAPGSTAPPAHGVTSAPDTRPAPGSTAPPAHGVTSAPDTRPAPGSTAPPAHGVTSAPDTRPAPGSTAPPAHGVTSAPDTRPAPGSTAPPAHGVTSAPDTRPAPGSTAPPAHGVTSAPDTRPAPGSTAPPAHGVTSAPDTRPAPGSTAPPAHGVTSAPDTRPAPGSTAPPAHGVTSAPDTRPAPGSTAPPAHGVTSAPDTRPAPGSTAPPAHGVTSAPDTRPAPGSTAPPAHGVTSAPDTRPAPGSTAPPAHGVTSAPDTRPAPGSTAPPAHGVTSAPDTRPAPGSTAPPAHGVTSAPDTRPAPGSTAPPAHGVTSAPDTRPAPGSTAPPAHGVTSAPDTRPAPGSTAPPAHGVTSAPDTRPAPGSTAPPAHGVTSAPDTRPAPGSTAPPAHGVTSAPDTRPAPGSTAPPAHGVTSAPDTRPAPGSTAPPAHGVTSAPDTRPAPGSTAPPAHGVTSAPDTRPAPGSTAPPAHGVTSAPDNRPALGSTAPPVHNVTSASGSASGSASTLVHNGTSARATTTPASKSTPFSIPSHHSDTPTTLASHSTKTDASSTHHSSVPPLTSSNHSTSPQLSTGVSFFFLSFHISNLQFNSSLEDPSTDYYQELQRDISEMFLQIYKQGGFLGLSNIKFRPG
Chain of prostate-specific antigen (PSA) (P07288 25-261): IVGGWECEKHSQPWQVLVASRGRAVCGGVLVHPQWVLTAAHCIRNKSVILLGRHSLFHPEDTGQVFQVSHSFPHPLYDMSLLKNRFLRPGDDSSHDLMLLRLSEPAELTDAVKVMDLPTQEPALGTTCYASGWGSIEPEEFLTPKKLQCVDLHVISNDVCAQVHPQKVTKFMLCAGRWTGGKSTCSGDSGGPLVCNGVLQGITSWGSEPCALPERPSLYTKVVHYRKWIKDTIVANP

ATACAGCTTCAATT (ssDNA, 3'-NH2, immobilized via glutaraldehyde on amino-silica film) [CEA aptamer]
binding result [1]: no binding | binding result [2]: no binding | binding result [3]: no binding | binding result [4]: no binding | binding result [5]: binds
